# Measured values reported in the supplement of paper PMC9112550, “Optimization of the antimicrobial peptide Bac7 by deep mutational scanning” (BMC Biology, 2022).
# System: Escherichia coli TOP10
# Test: shrunken log2 fold change of peptide-encoding DNA abundance (4.5 h post-induction vs induction); higher = less antimicrobial activity (less host growth inhibition)
# Conditions: time post-induction: 4.5 h; library: site-saturation at positions 5, 18, 19, 20
# 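Further: peptides expressed intracellularly from a pBAD plasmid library in pooled LB shake-flask culture, induced with 0.3% L-arabinose, DNA abundance read by NGS, three biological replicates, DESeq2 with apeglm shrinkage.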
row,Sequence,shrunken log2 fold change
1,RRIRRRPPRLPRPRPRPTEGPRP,0.18
2,RRIRRRPPRLPRPRPRPTEHPRP,0.0963
3,RRIRRRPPRLPRPRPRPTEMPRP,0.477
4,RRIRRRPPRLPRPRPRPTGPPRP,0.369
5,RRIRRRPPRLPRPRPRPTHFPRP,1.01
6,RRIRRRPPRLPRPRPRPTIFPRP,0.149
7,RRIRRRPPRLPRPRPRPTLIPRP,0.157
8,RRIRRRPPRLPRPRPRPTLLPRP,0.465
9,RRIRRRPPRLPRPRPRPTLQPRP,0.678
10,RRIRRRPPRLPRPRPRPTLSPRP,-0.0436
11,RRIRRRPPRLPRPRPRPTMGPRP,0.0489
12,RRIRRRPPRLPRPRPRPTMYPRP,0.0102
13,RRIRRRPPRLPRPRPRPTNTPRP,0.142
14,RRIRRRPPRLPRPRPRPTPEPRP,0.572
15,RRIRRRPPRLPRPRPRPTPKPRP,1.24
16,RRIRRRPPRLPRPRPRPTPSPRP,0.772
17,RRIRRRPPRLPRPRPRPTQLPRP,0.628
18,RRIRRRPPRLPRPRPRPTRNPRP,0.853
19,RRIRRRPPRLPRPRPRPTTIPRP,-0.12
20,RRIRRRPPRLPRPRPRPTTMPRP,0.32
21,RRIRRRPPRLPRPRPRPTVEPRP,1.39
22,RRIRRRPPRLPRPRPRPTYIPRP,-0.12
23,RRIRRRPPRLPRPRPRPVCHPRP,-0.0349
24,RRIRRRPPRLPRPRPRPVCMPRP,0.32
25,RRIRRRPPRLPRPRPRPVGNPRP,-0.0457

row,Sequence,shrunken log2 fold change
1,RRIRRRPPRLPRPRPRPVGSPRP,0.432
2,RRIRRRPPRLPRPRPRPVGVPRP,0.705
3,RRIRRRPPRLPRPRPRPVIIPRP,-0.106
4,RRIRRRPPRLPRPRPRPVIKPRP,-0.121
5,RRIRRRPPRLPRPRPRPVIMPRP,0.189
6,RRIRRRPPRLPRPRPRPVINPRP,-0.0966
7,RRIRRRPPRLPRPRPRPVISPRP,0.104
8,RRIRRRPPRLPRPRPRPVKTPRP,0.05
9,RRIRRRPPRLPRPRPRPVMAPRP,0.281
10,RRIRRRPPRLPRPRPRPVMCPRP,0.0382
11,RRIRRRPPRLPRPRPRPVMRPRP,0.714
12,RRIRRRPPRLPRPRPRPVMYPRP,-0.127
13,RRIRRRPPRLPRPRPRPVNVPRP,-0.0902
14,RRIRRRPPRLPRPRPRPVQEPRP,-0.00475
15,RRIRRRPPRLPRPRPRPVQPPRP,0.669
16,RRIRRRPPRLPRPRPRPVQSPRP,0.0557
17,RRIRRRPPRLPRPRPRPVRCPRP,0.424
18,RRIRRRPPRLPRPRPRPVSGPRP,0.366
19,RRIRRRPPRLPRPRPRPVTNPRP,0.266
20,RRIRRRPPRLPRPRPRPVTPPRP,0.705
21,RRIRRRPPRLPRPRPRPVWDPRP,0.246
22,RRIRRRPPRLPRPRPRPWAFPRP,0.00699
23,RRIRRRPPRLPRPRPRPWCYPRP,-0.439
24,RRIRRRPPRLPRPRPRPWDMPRP,0.0681
25,RRIRRRPPRLPRPRPRPWELPRP,0.0522

row,Sequence,shrunken log2 fold change
1,RRIRRRPPRLPRPRPRPWFKPRP,-0.139
2,RRIRRRPPRLPRPRPRPWFQPRP,-0.0671
3,RRIRRRPPRLPRPRPRPWHGPRP,-0.202
4,RRIRRRPPRLPRPRPRPWICPRP,-0.0987
5,RRIRRRPPRLPRPRPRPWLDPRP,-0.0721
6,RRIRRRPPRLPRPRPRPWMHPRP,0.103
7,RRIRRRPPRLPRPRPRPWMMPRP,0.0519
8,RRIRRRPPRLPRPRPRPWNNPRP,-0.173
9,RRIRRRPPRLPRPRPRPWPDPRP,0.0719
10,RRIRRRPPRLPRPRPRPWQNPRP,-0.111
11,RRIRRRPPRLPRPRPRPWWIPRP,0.249
12,RRIRRRPPRLPRPRPRPYCKPRP,-0.24
13,RRIRRRPPRLPRPRPRPYCQPRP,-0.664
14,RRIRRRPPRLPRPRPRPYDFPRP,-0.296
15,RRIRRRPPRLPRPRPRPYENPRP,-0.374
16,RRIRRRPPRLPRPRPRPYERPRP,-0.18
17,RRIRRRPPRLPRPRPRPYGAPRP,-0.171
18,RRIRRRPPRLPRPRPRPYIAPRP,-0.54
19,RRIRRRPPRLPRPRPRPYICPRP,-0.452
20,RRIRRRPPRLPRPRPRPYITPRP,-0.523
21,RRIRRRPPRLPRPRPRPYNEPRP,-0.103
22,RRIRRRPPRLPRPRPRPYPEPRP,0.00427
23,RRIRRRPPRLPRPRPRPYQEPRP,-0.259
24,RRIRRRPPRLPRPRPRPYQHPRP,-0.983
25,RRIRRRPPRLPRPRPRPYQLPRP,-0.234
